# Results taken from patent US20140308287A1 (SEA LANE BIOTECHNOLOGIES, published 2014).
# Numbering of substitutions follows the chain as printed.
# B1: 2995-A01 (other)
# VH: EVQLLESGGGLVQPGGSLRLSCAASGFTFSSYWMHWVRQAPGKGLEWVAAISSSGTYTYYADSVKGRFTISRDNSKNTLYLQMNSLRAEDTAVYYCAKDNFILLNSWFDYWGQGTLVTVSS
# light: QPVLHQPPAMSSALGTTIRLTCTLRNDHDIGVYSVYWYQQRPGHPPRFLLRYFSQSDKSQGPQVPPRFSGSKDVARNRGYLSISELQPEDEAMYYCAMGARSSVTHVFGSGTQLTVLSQPKATPSVTLFPPSSEELQANKATLVCLMNDFYPGILTVTWKADGTPITQGVEMTTPSKQSNNKYAASSYLSLTPEQWRSRRSYSCQVMHEGSTVEKTVAPAECS
# B2: 2995-A07 (other)
# VH: B1 VH with A50G, S54G, T56A
# light: B1 light
# B3: 2995-B10 (other)
# VH: B1 VH with S53A, S54G, G55S, T56G, T58I
# surrogate light: B1 light
# notes: copies: 1 + 1
# B4: 2995-G11 (other)
# VH: B1 VH with A49S, S54G, T56G, T58I
# surrogate light: B1 light
# notes: copies: 1 + 1
# B5: 2995-D07 (other)
# VH: B1 VH with S31N, S53N, S54G, T56G, T58K
# surrogate light: B1 light
# notes: copies: 1 + 1
# B6: 2995-H03 (other)
# VH: B1 VH with S31D, A50V, S53G, S54G, T56A, T58K
# light: B1 light
# B7: 2995-C07 (other)
# VH: B1 VH with S31N, A50L, S54G, G55S, T58I, Y59S, F108L
# light: B1 light
# B8: 2995-D08 (other)
# VH: B1 VH with S31D, S53W, S54G, T56S
# light: B1 light
# B9: 2995-B01 (other)
# VH: B1 VH with S31D, W33A, A50L, S54G, T56R, T58K
# light: B1 light
# B10: 2995-B04 (other)
# VH: B1 VH with S31N, A50L, S53N, S54N
# light: B1 light
# B11: 2995-C05 (other)
# VH: B1 VH with S31D, S54G, G55S, T56S
# surrogate light: B1 light
# notes: copies: 1 + 1
# B12: 2995-B02 (other)
# VH: B1 VH with S31D, A50V, S54N, T56R
# light: B1 light
# notes: copies: 1 + 1
# B13: 2995-E08 (other)
# VH: B1 VH with A50G, S54G, T56S, T58K
# light: B1 light
# B14: 2995-A02 (other)
# VH: B1 VH with H35N, A50L, S53N, S54G, T56G, Y57I, T58K
# light: B1 light
# notes: copies: 1 + 1
# B15: 2995-A12 (other)
# VH: B1 VH with S31D, H35N, A50N, S53G, S54G, T56G, T58I
# surrogate light: B1 light
# B16: 2995-C03 (other)
# VH: B1 VH with A50G, S53G, S54G, T56R
# surrogate light: B1 light
# notes: copies: 1 + 1
# B17: 2995-C02 (other)
# VH: B1 VH with S31N, H35N, A50N, S54G, T56S
# surrogate light: B1 light
# notes: copies: 1 + 1
# B18: 2995-H07 (other)
# VH: B1 VH with S31D, H35N, A50L, S53N, S54N, T56S
# light: B1 light
# B19: 2995-G10 (other)
# VH: B1 VH with S31D, H35N, A50N, S53N, S54G, T58I
# light: B1 light
# B20: 2995-H09 (other)
# VH: B1 VH with S31N, A50S, S53N, S54G, T56R, T58I
# light: B1 light
# B21: 2995-D11 (other)
# VH: B1 VH with A50V, S53N, S54N, T56R, T58K
# surrogate light: B1 light
# notes: copies: 1 + 1
# B22: 2995-A06 (other)
# VH: B1 VH with A50G, S53D, S54G, T56A
# surrogate light: B1 light
# notes: copies: 1 + 1
# B23: 2995-D03 (other)
# VH: B1 VH with W33A, A50L, S53N, S54G, G55S, T56G, T58K
# light: B1 light
# notes: copies: 1 + 1
# B24: 2995-F08 (other)
# VH: B1 VH with A49S, A50G, S53N, S54N, T56R, T58K
# light: B1 light
# B25: 2995-H11 (other)
# VH: B1 VH with S31D, A49S, T56G, T58K
# light: B1 light
# B26: 2995-B06 (other)
# VH: B1 VH with S31N, W33G, A50L, S54G, T56A
# light: B1 light
# B27: 2995-A08 (other)
# VH: B1 VH with A50G, S53N, S54G, T56S, Y57I, T58I
# light: B1 light
# B28: 2995-E12 (other)
# VH: B1 VH with S31N, A50L, S54G, G55S, T58I, Y59S
# light: B1 light
# B29: 2995-C10 (other)
# VH: B1 VH with A50G, S53G, S54G, T56A
# light: B1 light
# notes: copies: 1 + 1
# B30: 2995-D01 (other)
# VH: B1 VH with H35S, A50L, S53N, S54G, T56S, Y57I, T58K
# light: B1 light
# B31: 2995-A05 (other)
# VH: B1 VH with S31N, S53N, S54G, G55S, T56S
# light: B1 light
# B32: 2995-A09 (other)
# VH: B1 VH with A50G, S53Y, S54G
# light: B1 light
# Target: T1, human ErbB3-Fc (R&D Systems) (human, UniProt P21860 20-643)
# T1 construct: Bought protein; also called wild-type ErbB3-Fc fusion; immobilized ErbB3; not shown: Fc part of the bought fusion protein; not described
# Assay: ELISA on ErbB3-Fc, soluble monovalent Sab (Example 42)
row,Binder,EC50
1,B1,0.071 nM
2,B2,0.022 nM
3,B3,0.032 nM
4,B4,0.029 nM
5,B5,0.033 nM
6,B6,0.026 nM
7,B7,0.056 nM
8,B8,0.052 nM
9,B9,0.046 nM
10,B10,0.021 nM
11,B11,0.015 nM
12,B12,0.016 nM
13,B13,0.039 nM
14,B14,0.018 nM
15,B15,0.01 nM
16,B16,0.027 nM

row,Binder,EC50
1,B17,0.028 nM
2,B18,0.025 nM
3,B19,0.022 nM
4,B20,0.02 nM
5,B21,0.027 nM
6,B22,0.032 nM
7,B23,0.015 nM
8,B24,0.059 nM
9,B25,0.063 nM
10,B26,0.01 nM
11,B27,0.02 nM
12,B28,0.04 nM
13,B29,0.02 nM
14,B30,0.038 nM
15,B31,0.022 nM
16,B32,0.045 nM
